These results are taken from patent US20020197690.

The target of the data set is T1, 35S-labeled in vitro translated GID.
T1 chain: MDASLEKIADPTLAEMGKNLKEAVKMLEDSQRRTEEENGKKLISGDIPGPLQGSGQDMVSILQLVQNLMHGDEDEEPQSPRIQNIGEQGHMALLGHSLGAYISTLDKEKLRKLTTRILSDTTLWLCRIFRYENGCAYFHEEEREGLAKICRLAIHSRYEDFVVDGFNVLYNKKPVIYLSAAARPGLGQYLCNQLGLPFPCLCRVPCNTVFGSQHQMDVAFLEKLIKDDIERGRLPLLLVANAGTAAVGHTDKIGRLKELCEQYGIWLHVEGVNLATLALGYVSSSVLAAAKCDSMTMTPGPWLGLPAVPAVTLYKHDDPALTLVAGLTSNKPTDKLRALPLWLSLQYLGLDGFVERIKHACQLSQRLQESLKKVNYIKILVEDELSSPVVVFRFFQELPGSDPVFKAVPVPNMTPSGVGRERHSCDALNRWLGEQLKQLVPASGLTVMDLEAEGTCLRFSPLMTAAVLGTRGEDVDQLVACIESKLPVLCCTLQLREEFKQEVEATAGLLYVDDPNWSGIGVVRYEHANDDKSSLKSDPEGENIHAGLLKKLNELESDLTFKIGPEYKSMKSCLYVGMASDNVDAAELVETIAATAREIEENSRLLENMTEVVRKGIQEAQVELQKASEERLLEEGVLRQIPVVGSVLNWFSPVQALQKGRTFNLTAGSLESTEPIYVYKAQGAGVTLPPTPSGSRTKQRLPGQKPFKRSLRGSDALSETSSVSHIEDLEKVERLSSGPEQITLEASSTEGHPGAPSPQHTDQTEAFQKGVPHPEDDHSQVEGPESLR

B1: recombinant caspase-3 (Pharmingen) (protein)
chain: SGISLDNSYKMDYPEMGLCIIINNKNFHKSTGMTSRSGTDVDAANLRETFRNLKYEVRNKNDLTREEIVELMRDVSKEDHSKRSSFVCVLLSHGEEGIIFGTNGPVDLKKITNFFRGDRCRSLTGKPKLFIIQACRGTELDCGIETDSGVDDDMACHKIPVEADFLYAYSTAPGYYSWRNSKDGSWFIQSLCAMLKQYADKLEFMHILTRVNRKVATEFESFSFDATFHAKKQIPCIVSMLTKELYFYH
On to B1, for which the “in vitro caspase-3 assay: cleavage of 35S-labeled in vitro translated GID (SDS-PAGE, autoradiography)” value is on record as “Increasing amounts of caspase-3 incubated with GID resulted in greater amounts of a cleavage product of approximately 58 kDa, which was not observed in the presence of incubation with buffer alone”.
